{"source": "patent US20260234700", "about": "“MUTANT CAS12J ENDONUCLEASES” (University of Copenhagen, published 2026)", "binders": {"B1": {"name": "CasΦ3 crRNA ; target dsDNA with TTC PAM (NT/T strands) (ssRNA ; dsDNA)", "RNA": "UAUUGAUUGCCCAGUACGCUGGGACAGCUGGUAAUGGGAUACCUU", "DNA 1": "GTAATTCAGCTGGTAATGGGATACCTTGTGCTACAGC", "DNA 2": "GCTGTAGCACAAGGTATCCCATTACCAGCTGAATTAC"}}, "target": "T1, CasΦ3 (Cas12j-3) (Biggiephage)", "T1 chain": "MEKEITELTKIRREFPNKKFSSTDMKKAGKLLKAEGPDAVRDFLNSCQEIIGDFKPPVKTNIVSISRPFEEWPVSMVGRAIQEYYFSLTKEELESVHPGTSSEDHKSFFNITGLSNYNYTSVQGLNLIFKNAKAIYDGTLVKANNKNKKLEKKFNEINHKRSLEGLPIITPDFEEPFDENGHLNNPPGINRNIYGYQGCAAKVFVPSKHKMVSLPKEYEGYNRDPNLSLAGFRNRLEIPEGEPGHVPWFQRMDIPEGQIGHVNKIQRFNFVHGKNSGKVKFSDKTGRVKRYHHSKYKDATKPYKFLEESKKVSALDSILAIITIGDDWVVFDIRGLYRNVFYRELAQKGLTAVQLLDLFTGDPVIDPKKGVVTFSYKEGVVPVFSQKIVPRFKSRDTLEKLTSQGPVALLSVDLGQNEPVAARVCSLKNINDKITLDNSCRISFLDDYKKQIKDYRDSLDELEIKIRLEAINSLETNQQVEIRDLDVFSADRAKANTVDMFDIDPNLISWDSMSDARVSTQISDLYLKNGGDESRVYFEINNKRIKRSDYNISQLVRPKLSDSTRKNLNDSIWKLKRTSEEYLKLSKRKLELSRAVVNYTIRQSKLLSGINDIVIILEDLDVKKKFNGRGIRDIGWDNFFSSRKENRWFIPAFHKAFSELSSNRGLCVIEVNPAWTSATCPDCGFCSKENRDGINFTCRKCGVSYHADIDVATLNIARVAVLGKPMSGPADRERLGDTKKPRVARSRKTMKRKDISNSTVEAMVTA", "experiment": "structure; cryo-EM 2.7 Å R-loop product complex; PAM TTC; Ni2+", "conditions": "tags: C-terminal His6", "method": "For the preparation of the Cryo-EM sample, Ni²⁺ was used as a catalytic ion instead of Mg²⁺ due to the higher yield obtained with this metal. CasΦ3 RNP was prepared as described before. 25 nmol of RNP and 37 nmol of unlabeled dsDNA substrate were incubated in 25 ml of MonoQ A buffer (20 mM HEPES pH7.5, 200 mM KCl, 1 mM NiSO₄, 0.5 mM TCEP) for 2 h at 20° C. to allow DNA cleavage. The product of the reaction was loaded in a MonoQ column equilibrated with MonoQ A buffer, and CasΦ3 R-loop complex was separated from the RNP and the unbound DNA substrate by a salt gradient elution using MonoQ B buffer (20 mM HEPES pH7.5, 2 M KCl, 1 mM NiSO₄, 0.5 mM TCEP). CasΦ3 R-loop eluted at 16-20% of MonoQ buffer B […]. […] 2.5 μL of freshly purified CasΦ3 R-loop complex (Absorbance_{260 nm} of ~1.6) was applied to UltrAuFoil 300 mesh R0.6/1.0 holey grids (Quantifoil), glow-discharged for 60 s at 10 mA (Leica EM ACE200), and plunge-frozen in liquid ethane (pre-cooled with liquid nitrogen) using a Vitrobot Mark IV (FEI, Thermo Fisher Scientific) using the next conditions: blotting time 3 s, 100% humidity and 4° C.\nWe reconstituted and characterized a functional CasΦ3-crRNA complex (FIG. 5) and determined the structure of the enzyme after severing a target dsDNA by cryo-EM (FIG. 1). […]", "data": [{"binder": "B1", "values": [{"measurement": "binding result", "value": "binds"}]}]}
